According to paper PMC4930773, “Cataract-causing mutation S228P promotes βB1-crystallin aggregation and degradation by separating two interacting loops in C-terminal domain” (Protein & Cell, 2016):

Target: T1, wild type βB1-crystallin (human, UniProt P53674 1-252)
T1 construct: human βB1-crystallin (CRYBB1), cloned from a human lens cDNA library into pET28a; no cleavage of the tag is described; also called WT βB1; WT; source: E. coli BL21 (DE3), purified (Ni-NTA, Superdex 200 gel filtration); not shown: His tag, N-terminal, kept
T1 sequence (looked up): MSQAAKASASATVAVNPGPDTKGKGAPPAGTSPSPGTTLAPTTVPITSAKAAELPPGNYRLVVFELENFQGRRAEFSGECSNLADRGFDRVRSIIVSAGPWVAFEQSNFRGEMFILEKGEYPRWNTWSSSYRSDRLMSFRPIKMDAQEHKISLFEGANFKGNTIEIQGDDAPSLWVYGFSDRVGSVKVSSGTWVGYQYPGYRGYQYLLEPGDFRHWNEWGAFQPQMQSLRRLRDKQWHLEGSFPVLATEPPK
Experiment: SEC; equal molar homomers mixed and incubated at 37°C, aggregates removed by centrifugation; Superdex 200, buffer A (20 mmol/L sodium phosphate, 150 mmol/L NaCl, 1 mmol/L EDTA, 1 mmol/L DTT, pH 7.0), 30 µmol/L protein; SDS-PAGE of soluble and insoluble fractions alongside
Conditions: both partners purified

B1: βA3-crystallin (natural protein, human, UniProt P05813 1-215, looked up)
chain: METQAEQQELETLPTTKMAQTNPTPGSLGPWKITIYDQENFQGKRMEFTSSCPNVSERSFDNVRSLKVESGAWIGYEHTSFCGQQFILERGEYPRWDAWSGSNAYHIERLMSFRPICSANHKESKMTIFEKENFIGRQWEISDDYPSLQAMGWFNNEVGSMKIQSGAWVCYQYPGYRGYQYILECDHHGGDYKHWREWGSHAQTSQIQSIRRIQQ
notes: source: E. coli BL21 (DE3), purified (Ni-NTA, Superdex 200 gel filtration)
  binding result: binds
